Reference: PMC6351562, “Structure, function, and inhibition of drug reactivating human gut microbial β-glucuronidases” (Scientific Reports, 2019)

Tested on: O=C(O)[C@H]1O[C@@H](Oc2ccc([N+](=O)[O-])cc2)[C@H](O)[C@@H](O)[C@@H]1O
Experiment: purified protein, by the assay type
Conditions: other: pNPG as substrate, optimal pH 5.0, 37 °C

Substance: Bacteroides fragilis GUS (BfGUS) (Bacteroides fragilis NCTC 9343)
- Km: 580 ± 90 µM
- kcat: 22 s⁻¹
- kcat/Km: 39000 M⁻¹ s⁻¹
